T1: IFNAR1 (Interferon alpha receptor-1) (human, UniProt P17181 28-557)
T1 sequence (looked up): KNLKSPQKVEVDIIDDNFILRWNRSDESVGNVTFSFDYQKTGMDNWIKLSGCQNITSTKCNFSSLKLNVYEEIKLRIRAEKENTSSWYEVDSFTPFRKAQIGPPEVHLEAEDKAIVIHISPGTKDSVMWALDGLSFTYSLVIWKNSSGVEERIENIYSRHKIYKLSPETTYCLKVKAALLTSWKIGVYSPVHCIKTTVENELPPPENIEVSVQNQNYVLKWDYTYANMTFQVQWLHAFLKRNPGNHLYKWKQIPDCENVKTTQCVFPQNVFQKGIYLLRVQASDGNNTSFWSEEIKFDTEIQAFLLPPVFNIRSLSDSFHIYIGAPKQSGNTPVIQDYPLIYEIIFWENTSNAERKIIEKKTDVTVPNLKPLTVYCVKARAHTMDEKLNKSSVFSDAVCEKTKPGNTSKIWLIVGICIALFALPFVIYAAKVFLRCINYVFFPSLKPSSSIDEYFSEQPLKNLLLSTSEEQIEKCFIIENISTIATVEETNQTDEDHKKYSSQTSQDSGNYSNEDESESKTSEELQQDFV


What was measured:
[1] = target: T1, IFNAR1 (Interferon alpha receptor-1); test: cell-based or functional assay
[2] = target: T1, IFNAR1 (Interferon alpha receptor-1); test: live-cell confocal fluorescence imaging of IFNAR1-expressing THP-1 cells, 1 µg/mL, stained on ice, FcR blocked
Experimental: Reaction mixtures were purified from unincorporated fluorescent molecules using size-exclusion mini-columns provided in the kit. IFNAR1-expressing THP-1 cells were maintained in suspension using RPMI growth medium containing 10% FBS, and seeded in a fresh growth medium at 2×10^5 cells/mL overnight prior to the experiments. On the day of experiments, THP-1 cells were washed and resuspended to a concentration of 3×10⁶ cells/mL.
Cell suspensions were first stained for 10-20 min with cytosol dye, CFSE, from Invitrogen (Life Technologies Corp, Carlsbad, Calif.) in a CO₂ incubator at 37° C. Excess CFSE was removed by two washes with 1×PBS. […] Following the removal of unincorporated antibodies by centrifugation, cells were resuspended to initial volumes, and dispensed into the wells of 384-well imaging plates.

Row | IC50 (nM), bootstrap median [1] [nM] | IC50 (nM): Potency, MEDI-546 concentration corresponding to half-maximum inhibition of GS production [1] [nM] | binding result [2] | Binder
1 | 0.772 | 0.978 |  | MEDI-546 (antibody, human IgG1, V domains shown) VH: EVQLVQSGAEVKKPGESLKISCKGSGYIFTNYWIAWVRQMPGKCLESMGIIYPGDSDIRYSPSFQGQVTISADKSITTAYLQWSSLKASDTAMYYCARHDIEGFDYWGRGTLVTVSS VL: EIVLTQSPGTLSLSPGERATLSCRASQSVSSSFFAWYQQKPGQAPRLLIYGASSRATGIPDRLSGSGSGTDFTLTITRLEPEDFAVYYCQQYDSSAITFGQGTRLEIK
2 |  |  | binds | MEDI-546-Alexa647 (antibody, human IgG1, V domains shown, Alexa647 dye conjugated to the antibody (sites and chain not stated)) VH: EVQLVQSGAEVKKPGESLKISCKGSGYIFTNYWIAWVRQMPGKCLESMGIIYPGDSDIRYSPSFQGQVTISADKSITTAYLQWSSLKASDTAMYYCARHDIEGFDYWGRGTLVTVSS VL: EIVLTQSPGTLSLSPGERATLSCRASQSVSSSFFAWYQQKPGQAPRLLIYGASSRATGIPDRLSGSGSGTDFTLTITRLEPEDFAVYYCQQYDSSAITFGQGTRLEIK
